Experimental data published in publication PMC7211019 (2020).
Ends that are not written are not given here.

Columns and labels:
[1] = target: T1, Par3 PDZ3 (rat, UniProt Q9Z340 582-685); experiment: FP
[2] = target: Par3 PDZ3 G600,602 A (rat, UniProt Q9Z340 582-685, G600,602 A (G600A) | G600,602 A (G602A)); experiment: FP
[3] = target: Par3 PDZ1 (rat, UniProt Q9Z340 1-1337); experiment: FP
[4] = target: Par3 PDZ2 (Rattus norvegicus); experiment: FP
[5] = target: T1, Par3 PDZ3; experiment: FP; 0% 1,6-hexanediol
[6] = target: T1, Par3 PDZ3; experiment: FP; 5% 1,6-hexanediol
[7] = target: T1, Par3 PDZ3; experiment: FP; 10% 1,6-hexanediol
[8] = target: T1, Par3 PDZ3; experiment: FP; 25% 1,6-hexanediol

T1 sequence (Q9Z340 582-685): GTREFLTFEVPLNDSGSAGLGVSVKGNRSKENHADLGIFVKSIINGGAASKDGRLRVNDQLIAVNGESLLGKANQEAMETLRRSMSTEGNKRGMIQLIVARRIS
Par3 PDZ1, sequence (Q9Z340 whole entry): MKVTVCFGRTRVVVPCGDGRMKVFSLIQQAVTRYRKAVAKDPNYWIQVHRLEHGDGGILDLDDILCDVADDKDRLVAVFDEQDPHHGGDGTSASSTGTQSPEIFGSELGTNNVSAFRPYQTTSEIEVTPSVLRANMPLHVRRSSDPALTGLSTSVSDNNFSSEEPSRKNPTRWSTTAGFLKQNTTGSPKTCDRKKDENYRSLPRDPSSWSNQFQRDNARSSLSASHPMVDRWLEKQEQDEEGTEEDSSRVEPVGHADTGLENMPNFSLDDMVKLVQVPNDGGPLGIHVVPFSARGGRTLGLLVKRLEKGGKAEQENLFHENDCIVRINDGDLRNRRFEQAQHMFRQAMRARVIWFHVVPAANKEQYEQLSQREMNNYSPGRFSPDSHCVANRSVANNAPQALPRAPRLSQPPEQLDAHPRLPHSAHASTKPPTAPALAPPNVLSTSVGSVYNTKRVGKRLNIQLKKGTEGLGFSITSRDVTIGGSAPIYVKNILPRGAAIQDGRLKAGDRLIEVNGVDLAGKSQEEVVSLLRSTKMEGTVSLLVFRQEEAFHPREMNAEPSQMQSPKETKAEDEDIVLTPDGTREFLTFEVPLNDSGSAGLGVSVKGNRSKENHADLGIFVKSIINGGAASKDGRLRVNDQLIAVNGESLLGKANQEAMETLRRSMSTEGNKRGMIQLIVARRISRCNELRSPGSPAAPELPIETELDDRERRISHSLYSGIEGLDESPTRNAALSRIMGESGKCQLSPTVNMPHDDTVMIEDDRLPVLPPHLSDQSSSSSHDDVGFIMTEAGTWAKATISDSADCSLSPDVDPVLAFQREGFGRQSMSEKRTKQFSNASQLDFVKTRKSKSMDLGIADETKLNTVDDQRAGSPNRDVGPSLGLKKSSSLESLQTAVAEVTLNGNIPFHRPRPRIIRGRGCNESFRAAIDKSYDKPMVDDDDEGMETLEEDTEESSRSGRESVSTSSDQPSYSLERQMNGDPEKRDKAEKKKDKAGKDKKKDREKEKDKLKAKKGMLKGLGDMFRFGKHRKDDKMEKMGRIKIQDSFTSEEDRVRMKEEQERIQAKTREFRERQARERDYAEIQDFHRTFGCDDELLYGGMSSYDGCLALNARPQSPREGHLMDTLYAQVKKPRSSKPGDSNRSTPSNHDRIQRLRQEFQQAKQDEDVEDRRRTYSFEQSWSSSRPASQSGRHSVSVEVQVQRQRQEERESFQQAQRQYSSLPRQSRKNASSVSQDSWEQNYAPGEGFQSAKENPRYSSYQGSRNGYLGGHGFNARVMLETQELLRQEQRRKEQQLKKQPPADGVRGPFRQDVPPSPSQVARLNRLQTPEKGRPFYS
Par3 PDZ2 (Rattus norvegicus), sequence (chain, as listed by the source): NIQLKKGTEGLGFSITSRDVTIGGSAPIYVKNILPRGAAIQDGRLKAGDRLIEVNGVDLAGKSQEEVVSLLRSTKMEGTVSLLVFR
Par3 PDZ3 G600,602 A, sequence (Q9Z340 582-685 G600A/G602A): as the sequence (Q9Z340 582-685) above, with G19A, G21A counted along it

Row | Binder | Kd [1] [µM] | Kd [2] [µM] | Kd [3] [µM] | Kd [4] [µM] | Kd [5] [µM] | Kd [6] [µM] | Kd [7] [µM] | Kd [8] [µM]
1 | MRGDVSGFSL (also: FITC label, position not given here) [FITC-labeled Par6α PBM peptide] | 172 | – | – | – | – | – | – | –
2 | VEEHGPAITL (also: FITC label, position not given here) [FITC-labeled Par6γ PBM peptide] | 1.3 | – | – | – | – | – | – | –
3 | LEEDGTIITL (also: FITC label, position not given here) [FITC-labeled Par6β PBM peptide] | 1.1 | 20 | 104 | 161 | 1.1 | 4.9 | 9.7 | 22
